Assay [1] concerns the target OmpA with T7⋅tag epitope inserted into loop 4 (Escherichia coli) (UniProt P0A910). In words: flow cytometry of whole cells, biotinylated mAb then streptavidin-phycoerythrin. On the technique in general: A flow cytometer gives signals particle by particle.
The target in assay [2] is OmpA with T7⋅tag epitope inserted into loop 1 (Escherichia coli) (UniProt P0A910). The assay is described as above.

In assay [1], anti-T7⋅tag monoclonal antibody registered a fold fluorescence above background cellular autofluorescence of 2 fold. In assay [2], the fold fluorescence above background control cells was determined as 300 fold.

Source of the values: patent publication US20190264194A1.
